The values that follow come from US8080531B2, “Methods for modulating checkpoint activation through TopBP1” (California Institute of Technology, priority 2006, dated 2011).

Residue numbers refer to the chain shown, from its start. In names and notes the source's numbering stands.

Data set [1] concerns the target Xatr-Xatrip (Xenopus laevis, UniProt Q9DE14). Kind of data set: Kinase assay of Xatr-Xatrip complexes isolated from Xenopus egg extracts. The data set is classed as biochemical. Further details: increase of kinase activity of Xatr; other: Xatr immunoprecipitated from Xatrip-depleted extracts. The note with it: Xatr-XatripΔN222 activated by His6-XtopBP1, PHAS-I substrate, 0.04-5 mM caffeine; read-out: half-maximal inhibition of the XtopBP1-activated form of Xatr. From the text:
(§1) Specifically, Applicants first isolated Xatr from egg extracts by pull-downs with FLAG-tagged Xenopus ATRIP (Xatrip). For these experiments, Applicants used both full-length Xatrip and an N-terminal truncation mutant (ΔN222) that supports normal Xatr-dependent activation of Xchk1 in egg extracts (Kumagai et al., 2004; Kim et al., 2005).
(§2) Applicants eluted the beads with FLAG peptide and mixed the eluates with a His6-tagged version of XtopBP1 that had been purified from baculovirus-infected insect cells (FIG. 1B). Finally, Applicants added ^32P-ATP and PHAS-I, a commonly used model substrate for ATR (Abraham, 2001).
Xatrip-FLAG and XatripΔN222-FLAG (20 ng/μl each) were incubated in interphase extracts containing anti-FLAG M2 antibody beads (Sigma) for 60 min at room temperature. The beads were isolated and washed twice with buffer A (10 mM HEPES-KOH (pH 7.5), 150 mM NaCl, 0.1% CHAPS, and 2.5 mM EGTA) and twice with HEPES-buffered saline (HBS; 10 mM HEPES-KOH (pH 7.5) and 150 mM NaCl). Xatr-Xatrip complexes were eluted in one-tenth the volume of the egg extract in HBS containing 0.1 mg/ml 3×-FLAG peptide (Sigma) for 60 min at 4° C. Eluates (2 μl) were used for kinase assays as described below. […]

Another data set relates to human Mcm2 on S108. Description: Phosphorylation of Mcm2 on S108 in transfected human 293T cells. As to conditions: for phosphorylation of Mcm2 on S108: immunoblotting. The format is cell-based. From the text:
To pursue this issue further, Applicants asked whether the ATR-activating domain of TopBP1 could induce ATR-dependent phosphorylation in human cells. For this purpose, Applicants constructed a version of the enhanced green fluorescent protein (EGFP) containing the SV40 nuclear localization sequence and residues 978-1286 of human TopBP1 (equivalent to residues 972-1279 of XtopBP1). Applicants also produced the W1145R mutant of this plasmid (analogous to the W1138R mutant of XtopBP1). Applicants transfected plasmids encoding these proteins into human 293T cells and performed immunoblotting with anti-phosphopeptide antibodies that detect phosphorylation of human Mcm2 on S108 (which corresponds to S92 of Xmcm2) (Cortez et al., 2004; Yoo et al., 2004).
pEGFP-NLS-TopBP1 (978-1286), which encodes EGFP followed by a nuclear localization sequence (KKKRKV, SEQ ID NO: 11) and amino acids 978-1286 of human TopBP1, was prepared from pEGFP (Clontech) by standard polymerase chain reaction-based methods. Plasmids were transfected into 293T cells with Lipofectamine 2000 (Invitrogen).
Background: Immunoblotting shows a protein as a band on a membrane.

Data set [2] has as its system Xatr-Xatrip. Kind of data set: Kinase assay of Xatr-Xatrip complexes isolated from Xenopus egg extracts. As to conditions: for activation of Xatr kinase activity toward PHAS-I: isolated Xatr-Xatrip complexes, 32P-ATP, result in words. The data set is classed as biochemical.
Excerpt: as §1, §2
Xatrip-FLAG and XatripΔN222-FLAG (20 ng/μl each) were incubated in interphase extracts containing anti-FLAG M2 antibody beads (Sigma) for 60 min at room temperature. The beads were isolated and washed twice with buffer A (10 mM HEPES-KOH (pH 7.5), 150 mM NaCl, 0.1% CHAPS, and 2.5 mM EGTA) and twice with HEPES-buffered saline (HBS; 10 mM HEPES-KOH (pH 7.5) and 150 mM NaCl). Xatr-Xatrip complexes were eluted in one-tenth the volume of the egg extract in HBS containing 0.1 mg/ml 3×-FLAG peptide (Sigma) for 60 min at 4° C. Eluates (2 μl) were used for kinase assays as described below.
(§3) Samples were incubated in 20 μl kinase buffer (50 mM Tris-HCl (pH 7.5), 10 mM MgCl2, 1 mM dithiothreitol, 100 μM nonradioactive ATP, and 100 μCi/ml [γ-^32P]ATP) containing 12.5 μg/ml PHAS-I or 50 μg/ml GST-Xmcm2 (62-122) for 30 min at room temperature. GST-XtopBP1 (972-1279) was added at a final concentration of 100 μg/ml unless indicated otherwise. In some cases, GST-Xmcm2 (62-122), GST-Xchk1 (306-352), or full-length Xchk1-Myc-His6 were used as substrates with only […] nonradioactive ATP. Reactions were terminated by boiling in gel sample buffer.

The next data set has as its system Xchk1. Kind of data set: Ectopic phosphorylation of 35S-Xchk1 in Xenopus egg extracts without checkpoint-inducing DNA. The format is biochemical. As to conditions: 35S-Xchk1, tautomycin, no checkpoint-inducing DNA template. As for the experimental part: Because the GST-XtopBP1 (972-1279) fragment could activate Xatr in vitro without the inclusion of DNA, Applicants reasoned that ectopic addition of this fragment to Xenopus egg extracts might also be able to trigger the Xatr-dependent phosphorylation of Xchk1 even in the absence of a checkpoint-inducing DNA template.
Extracts from Xenopus eggs were prepared as described (Kumagai and Dunphy, 2000). A DNA replication checkpoint response was induced by addition of 50 μg/ml aphidicolin into extracts containing demembranated sperm nuclei (3000 per μl) (Kumagai and Dunphy, 2000). To monitor DNA replication, extracts containing 1000 sperm nuclei/μl were incubated with [α-^32P]dATP (Yoo et al., 2004).

The subject of data set [3] is Xatr-Xatrip. Description: Glutathione bead pull-down of Xatr and Xatrip from egg extracts. The format is binding, Xenopus. As to conditions: egg extracts, immunoblotting. As to the method: Specifically, Applicants incubated glutathione beads containing GST-XtopBP1 (972-1279) in egg extracts, reisolated the beads, and performed immunoblotting for both Xatr and Xatrip. […] In addition, in other experiments, there was no binding of Xatr or Xatrip to beads containing GST fusions of the 1-348, 333-646, or 623-984 segments from XtopBP1 (data not shown).
Applicants also tested to see if the association of XtopBP1 with Xatr depends upon Xatrip. For this experiment, Applicants removed endogenous Xatrip from egg extracts by immunodepletion with anti-Xatrip antibodies. As described previously, this procedure leaves behind approximately 30% of the endogenous Xatr, the fraction that is not in a complex with Xatrip (Kumagai et al., 2004). Next, Applicants added GST-XtopBP1 (972-1279) to the Xatrip-depleted extracts and to mock-depleted extracts that had been prepared in parallel.

For data set [4], the target named is T1, human ATR (Homo sapiens, UniProt Q13535).
T1 construct: expressed in transfected cells; host or cells: U2OS GW33 cells (doxycycline-inducible), nuclear extract, anti-FLAG purification
Kind of data set: Kinase assay of recombinant human FLAG-ATR against S92 of GST-Xmcm2 (62-122). The data set is classed as biochemical. The note with it: wild-type human FLAG-ATR from U2OS nuclear extracts. As to the method:
(§4) Specifically, Applicants isolated wild-type and kinase-deficient versions of FLAG-tagged human ATR from nuclear extracts of U2OS cells that conditionally express these proteins (FIG. 5C). The recombinant ATR proteins were purified with anti-FLAG magnetic beads under conditions that preserve the binding of endogenous ATRIP (Ünsal-Kacmaz and Sancar, 2004). Next, Applicants incubated both the wild-type and kinase-deficient FLAG-ATR preparations in the absence or presence of GST-XtopBP1 (972-1279), and measured kinase activity against S92 of the GST-Xmcm2 (62-122) peptide.
as §3
(§5) U2OS cells conditionally expressing wild-type (GW33) or kinase-deficient (GK41) human FLAG-ATR were cultured as described (Nghiem et al., 2001). Cells were induced with 1 μg/ml doxycycline for 48 hr. Nuclear extracts were prepared as described (Dignam et al., 1983) except that nuclei were lysed by brief sonication and the concentration of NaCl in the nuclear isolation buffer was reduced to 350 mM in order to preserve the binding of endogenous ATRIP to recombinant ATR. FLAG-ATR proteins were isolated by an overnight incubation with anti-FLAG antibodies bound to protein G-magnetic beads (Dynal) and eluted with 3×-FLAG peptide.

Data set [5] deals with human ATR. Described as above. The data set is classed as biochemical. As to conditions: kinase-deficient human FLAG-ATR. As to the method:
as §4, §3, §5

Chain of Xatr-Xatrip (Q9DE14 whole entry, the tested form may be a part): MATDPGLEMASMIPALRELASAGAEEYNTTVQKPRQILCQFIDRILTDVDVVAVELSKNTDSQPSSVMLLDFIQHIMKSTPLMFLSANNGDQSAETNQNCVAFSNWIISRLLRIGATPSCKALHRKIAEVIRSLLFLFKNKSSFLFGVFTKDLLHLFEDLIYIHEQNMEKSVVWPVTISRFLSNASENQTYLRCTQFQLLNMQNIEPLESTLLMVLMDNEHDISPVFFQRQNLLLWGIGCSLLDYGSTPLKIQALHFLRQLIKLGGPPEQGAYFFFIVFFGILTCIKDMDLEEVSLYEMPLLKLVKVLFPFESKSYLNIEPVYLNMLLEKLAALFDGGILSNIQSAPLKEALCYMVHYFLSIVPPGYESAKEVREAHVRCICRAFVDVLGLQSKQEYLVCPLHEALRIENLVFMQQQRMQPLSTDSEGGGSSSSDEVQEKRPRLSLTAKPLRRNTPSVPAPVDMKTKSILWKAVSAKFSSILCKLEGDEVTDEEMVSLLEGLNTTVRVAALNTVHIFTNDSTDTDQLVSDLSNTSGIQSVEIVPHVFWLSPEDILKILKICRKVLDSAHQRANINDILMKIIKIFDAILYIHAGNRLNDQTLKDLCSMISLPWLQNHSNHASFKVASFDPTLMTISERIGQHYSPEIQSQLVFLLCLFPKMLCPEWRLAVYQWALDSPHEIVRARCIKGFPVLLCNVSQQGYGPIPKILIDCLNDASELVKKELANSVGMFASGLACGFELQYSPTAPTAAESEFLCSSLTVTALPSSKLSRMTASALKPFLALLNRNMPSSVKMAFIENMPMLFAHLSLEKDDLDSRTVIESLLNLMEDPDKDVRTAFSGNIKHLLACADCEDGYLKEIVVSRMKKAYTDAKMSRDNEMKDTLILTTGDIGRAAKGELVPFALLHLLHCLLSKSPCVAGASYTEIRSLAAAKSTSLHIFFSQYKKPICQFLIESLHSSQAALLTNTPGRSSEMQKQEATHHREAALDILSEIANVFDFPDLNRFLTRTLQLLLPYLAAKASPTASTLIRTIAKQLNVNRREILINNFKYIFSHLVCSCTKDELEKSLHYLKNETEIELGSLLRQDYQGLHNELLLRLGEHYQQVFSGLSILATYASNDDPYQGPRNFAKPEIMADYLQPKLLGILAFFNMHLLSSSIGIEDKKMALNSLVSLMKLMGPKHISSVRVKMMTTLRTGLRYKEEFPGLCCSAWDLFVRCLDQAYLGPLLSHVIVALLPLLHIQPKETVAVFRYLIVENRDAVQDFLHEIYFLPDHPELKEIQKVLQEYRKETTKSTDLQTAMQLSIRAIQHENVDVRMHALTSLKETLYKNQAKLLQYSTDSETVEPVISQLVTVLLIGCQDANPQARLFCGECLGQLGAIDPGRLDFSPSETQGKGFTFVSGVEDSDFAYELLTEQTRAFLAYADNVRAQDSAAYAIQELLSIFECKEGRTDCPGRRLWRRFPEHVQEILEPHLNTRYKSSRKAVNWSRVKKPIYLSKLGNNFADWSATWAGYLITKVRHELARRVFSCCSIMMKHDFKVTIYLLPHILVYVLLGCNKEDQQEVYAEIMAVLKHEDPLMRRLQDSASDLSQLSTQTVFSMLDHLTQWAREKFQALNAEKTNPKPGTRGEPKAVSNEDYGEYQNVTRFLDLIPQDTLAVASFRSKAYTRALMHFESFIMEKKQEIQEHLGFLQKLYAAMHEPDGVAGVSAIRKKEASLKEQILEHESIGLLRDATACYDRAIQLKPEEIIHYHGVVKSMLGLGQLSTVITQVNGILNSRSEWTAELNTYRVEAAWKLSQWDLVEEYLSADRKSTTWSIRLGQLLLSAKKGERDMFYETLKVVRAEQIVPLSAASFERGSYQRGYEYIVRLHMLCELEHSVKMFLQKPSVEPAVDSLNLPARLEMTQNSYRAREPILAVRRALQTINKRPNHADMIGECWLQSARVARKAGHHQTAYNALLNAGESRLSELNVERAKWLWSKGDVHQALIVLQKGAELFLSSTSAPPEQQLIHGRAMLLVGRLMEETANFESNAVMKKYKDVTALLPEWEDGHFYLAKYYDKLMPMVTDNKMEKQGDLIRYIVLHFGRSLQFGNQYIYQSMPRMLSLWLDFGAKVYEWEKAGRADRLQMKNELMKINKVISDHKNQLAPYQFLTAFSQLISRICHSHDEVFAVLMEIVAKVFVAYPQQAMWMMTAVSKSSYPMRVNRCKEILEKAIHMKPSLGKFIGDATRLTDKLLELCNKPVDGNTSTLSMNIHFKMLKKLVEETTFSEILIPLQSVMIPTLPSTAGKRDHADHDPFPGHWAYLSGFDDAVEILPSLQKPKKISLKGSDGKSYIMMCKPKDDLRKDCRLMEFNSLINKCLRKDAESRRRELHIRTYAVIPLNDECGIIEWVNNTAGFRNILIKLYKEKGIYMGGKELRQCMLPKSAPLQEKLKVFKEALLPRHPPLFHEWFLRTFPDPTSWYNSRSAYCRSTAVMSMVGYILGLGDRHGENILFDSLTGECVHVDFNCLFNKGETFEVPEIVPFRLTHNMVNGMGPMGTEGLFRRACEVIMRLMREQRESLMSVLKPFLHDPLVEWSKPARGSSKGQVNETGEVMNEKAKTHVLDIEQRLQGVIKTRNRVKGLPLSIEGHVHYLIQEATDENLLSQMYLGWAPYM
Chain of Xatr-Xatrip (Xenopus laevis, UniProt Q9DE14) (Q9DE14 whole entry, the tested form may be a part): as above

On to `Cn1c(=O)c2c(ncn2C)n(C)c1=O` [caffeine, reference compound], for which, at Xatr-Xatrip [1], the IC50 is approximately 400 µM.

B1: wild-type 978-1286 fragment of human TopBP1: EGFP containing the SV40 nuclear localization sequence and residues 978-1286 of human TopBP1, expressed from transfected plasmid (protein)
chain: KKKRKVAQECKHLPESLYPHTYNPKMSLDISAVQDGRLCNSRLLSAVSSTKDDEPDPLILEENDVDNMATNNKESAPSNGSGKNDSKGVLTQTLEMRENFQKQLQEIMSATSIVKPQGQRTSLSRSGCNSASSTPDSTRSARSGRSRVLEALRQSRQTVPDVNTEPSQNEQIIWDDPTAREERARLASNLQWPSCPTQYSELQVDIQNLEDSPFQKPLHDSEIAKQAVCDPGNIRVTEAPKHPISEELETPIKDSHLIPTPQAPSIAFPLANPPVAPHPREKIITIEETHEELKKQYIFQLSSLNPQERIDYCHL
modifications: left off: large carriers
With B1, the “phosphorylation of Mcm2 on S108” value in the data set with human Mcm2 on S108 is given as “significantly elevated phosphorylation”. Also, in the data set on human Mcm2 on S108 (indirect immunofluorescence), the “phosphorylation of S108” value is “increase in the phosphorylation of S108”.

B2: W1145R mutant: W1145R mutant of EGFP-NLS-TopBP1 (978-1286), analogous to the W1138R mutant of XtopBP1 (protein)
chain: B1 chain with W174R
modifications: left off: large carriers
notes: W1145R mutant of EGFP-NLS-TopBP1 (978-1286), analogous to the W1138R mutant of XtopBP1
Take B2: the “phosphorylation of Mcm2 on S108” value in the data set with human Mcm2 on S108 is “no effect”.

B3: GST-XtopBP1 (1197-1513): GST fusion of XtopBP1 residues 1197-1513, containing two adjoining BRCT repeats (protein)
chain: EFEPKSAMRTPVIENNLQSPTKPDHLTPTPQAPSIAFPLANPPVAPQPREKPVQPFSKEETLKERRFQLSSLDPQERIDYSQLIEELGGVVIEKQCFDPSCTHIVVGHPLRNEKYLASMAAGKWVLHRSYLEACRAAKRFIQEEDYEWGSISILSAVTNINPQQRMLAEAAMRWRKKLQGIKQNMGIAEGAFSGWKVILNVDQTKEPGFKRLLQSGGAKVFAGHSSPLFKEASHLFADFSKLKPDEPRVNVAEAAAQGVNCLKPEYIADYLMKELPPPMNNYCLPDAIPYVRVTGTGLSRKRKTSGDVSDVKRSRHY
modifications: left off: a dimerising Fc or GST
notes: GST fusion of XtopBP1 residues 1197-1513, containing two adjoining BRCT repeats
In the case of B3, in the data set on Xatr-Xatrip [2], the “activation of Xatr kinase activity toward PHAS-I” value is reported as “incapable of activating Xatr”. Also, the “phosphorylation of Xchk1 in egg extracts” value with Xchk1 is given as “did not induce any phosphorylation”. Moreover, in the data set with Xatr-Xatrip [3], the “binding of Xatr and Xatrip to glutathione beads” value is “no binding”.

B4: W1138R mutant of GST-XtopBP1 (972-1279): point mutant of the fragment in which the tryptophan in the WDDP motif was changed to arginine (protein)
chain: EQQKRVPEALYPHTYNPKMSLDISAVQDGSYTASKFSADTSLQQDENSELQLQQNNKFGETSDDQVKKAAGDGNPQNPSKDVKGALTQTLEMRENFQRQLQEFMSATSVVKPRGSVGRAGFDNSPCTPEGARSTRNGRSRVLEALRQSRQAMTDLNTEPSQNEQIIRDDPTAREERAKLVSNLQWPDSPSQYSEQLQHNMNDAGGNYTPAKESLTDSEIAELEACEFEPKSAMRTPVIENNLQSPTKPDHLTPTPQAPSIAFPLANPPVAPQPREKPVQPFSKEETLKERRFQLSSLDPQERIDYSQL
modifications: left off: a dimerising Fc or GST; small tags and cut ends
notes: point mutant of the fragment in which the tryptophan in the WDDP motif was changed to arginine
B4: the “activation of Xatr kinase activity toward PHAS-I” value in the data set with Xatr-Xatrip [2] was “totally lost its capacity”. Further, in the data set on Xchk1, the “phosphorylation of Xchk1 in egg extracts” value was “none of the ΔRQLQ, ΔWDDP, or W1138R mutants of the 972-1279 fragment could induce ectopic activation”. Further, the “binding of Xatr and Xatrip to glutathione beads” value in the data set with Xatr-Xatrip [3] is recorded as “retains significant ability to bind Xatr-Xatrip”. Moreover, the “kinase activity of wild-type FLAG-ATR” value with human ATR [4] is on record as “did not induce any activation”. For the same molecule, the “activity of kinase-deficient FLAG-ATR” value in the data set on human ATR [5] was “neither the intact nor W1138R mutant form of GST-XtopBP1 (972-1279) had any effect”.

B5: 1050-1286 fragment: His6-Human TopBP1 fragment, residues 1050-1286 (protein)
chain: NGSGKNDSKGVLTQTLEMRENFQKQLQEIMSATSIVKPQGQRTSLSRSGCNSASSTPDSTRSARSGRSRVLEALRQSRQTVPDVNTEPSQNEQIIWDDPTAREERARLASNLQWPSCPTQYSELQVDIQNLEDSPFQKPLHDSEIAKQAVCDPGNIRVTEAPKHPISEELETPIKDSHLIPTPQAPSIAFPLANPPVAPHPREKIITIEETHEELKKQYIFQLSSLNPQERIDYCHL
modifications: left off: small tags and cut ends
Consider B5, for which the “ATR activation compared with the 972-1279 fragment” value in the data set on Xatr-Xatrip [2] (Xatr-XatripΔ222, PHAS-I, His6-human TopBP1 fragments) is “significant reduction”.
